These results are taken from patent publication US20130123173A1, “CREATION OF OXIDATION-RESISTANT HDL MIMETIC PEPTIDES” (The Regents of the University of California, priority 2010, published 2013).

The test system of series [1] is J774 macrophages. Particulars: background statement; cited from earlier work.
The nature of series [2]: SDS-PAGE analysis of peptides following exposure to acrolein (cross-linking). It counts as physicochemical. Particulars: 20-fold molar excess of acrolein, 37° C., 20 h. Here is the method:
Peptides ATI-5261 and K5,25 were exposed to 20-fold molar excess of acrolein or buffer alone and incubated 37° C. for 20 h. Lane 1—MW standards (kDa); lane 2, K5,25→R peptide exposed to acrolein; Lane3, ATI-5261 exposed to acrolein; lane 4, K5, 25→R peptide buffer control; Lane 5, ATI-5261 buffer control. Peptide loads were 3 μg/well.

The nature of series [3]: α-helical content (secondary structure) of peptides with and without acrolein. It counts as physicochemical. Particulars: for α-helical content: 10 mM phosphate buffer (pH=7.4); for α-helical content, comparison in words: FIG. 2 legend, vs ATI-5261 control or vs untreated peptide. Here is the method: FIG. 2 provides data showing the % α-helical content of ATI-5261 and the K5, 25→R analog peptide. Peptides in 10 mM phosphate buffer (pH=7.4) were analyzed. […] Biosyn. denotes source (commercial vendor) used to synthesize peptides (same for all peptides).

The subject of the next series is atherosclerosis. Particulars: mice fed high-fat western-diet; cited from earlier work.
Series [4] deals with J774 macrophages. Kind of series: Cholesterol efflux from cAMP-treated J774 macrophages (ABCA1 cholesterol efflux). It counts as cell-based. Particulars: for change of cholesterol efflux activity upon exposure to acrolein: excess molar acrolein; for cholesterol efflux activity: no oxidant exposure, lipid-free peptides, cAMP-treated J774 macrophages. Here is the method:
FIG. 1 provides data showing the sensitivity of ABCA1 efflux peptide ATI-5261 and an analog to acrolein. ATI-5261 was engineered with arginine (R) in place of lysine (K) at positions 5 and 25 (K5, 25/R), creating an oxidation-resistant analog. […] Panel B. Dependence of cholesterol efflux on ABCA1 expression, as judged with and without cAMP (no oxidant exposure). Peptides were used in lipid-free form at […]. Panel C. Peptides were incubated (37° C., 24 h) with acrolein at a molar ratio of 50:1 (acrolein:peptide) in the presence of DTPA; excess aminoguanidine was added to terminate reactions and peptides dialyzed to PBS. Cholesterol efflux (8 h) was assessed using cAMP-treated J774 cells and peptides at 2 mg/ml. Values are % of control efflux with peptides not treated with acrolein.
Panel D. Impact of varying molar ratio of acrolein relative to ATI-5261 on cholesterol efflux from cAMP treated J774 cells.
Suitable cholesterol efflux assays are described in, e.g., Bielicki, J. K and Oda, M. N., Biochemistry, 41:2089-2096 (2002); Jia et al., Biochem. Biophys. Res. Common., 297:206-213 (2002). In some embodiments, a polypeptide known to mediate cholesterol efflux (e.g., helix 9/10 of Apo A-I) is used to screen for additional mediators of cholesterol efflux in a cell based assay. For example, cell lines in which cholesterol efflux can be enhanced using a cAMP analog that up-regulates ABCA1 protein expression (e.g., J774 macrophages) can conveniently be used to assess the ability of a polypeptide of the present invention to mediate cholesterol efflux. The cells are incubated with labeled cholesterol (e.g., [^3H]cholesterol) under conditions appropriate for cholesterol uptake by the cells. Thus, cAMP or cAMP analogs (e.g., CPT-cAMP) are incubated with the cells for a suitable time before the initiation of cellular cholesterol efflux, i.e., prior to contacting the cells with a test polypeptide. Measurement of labeled cholesterol appearing in the medium is used to determine the cholesterol efflux mediating activity of the test polypeptide.

The subject of series [5] is macrophage reverse cholesterol transport. Kind of series: Macrophage reverse cholesterol transport upon exposure to oxidative stress. It counts as in vivo. Particulars: vs ATI-5261.
Another series addresses ABCA1 (UniProt P41233 1-2261, limits assumed). Kind of series: cell-based or functional assay.

Entries after “also recorded” stand apart in the source; their conditions may differ.

Sequence of ABCA1 (P41233 whole entry): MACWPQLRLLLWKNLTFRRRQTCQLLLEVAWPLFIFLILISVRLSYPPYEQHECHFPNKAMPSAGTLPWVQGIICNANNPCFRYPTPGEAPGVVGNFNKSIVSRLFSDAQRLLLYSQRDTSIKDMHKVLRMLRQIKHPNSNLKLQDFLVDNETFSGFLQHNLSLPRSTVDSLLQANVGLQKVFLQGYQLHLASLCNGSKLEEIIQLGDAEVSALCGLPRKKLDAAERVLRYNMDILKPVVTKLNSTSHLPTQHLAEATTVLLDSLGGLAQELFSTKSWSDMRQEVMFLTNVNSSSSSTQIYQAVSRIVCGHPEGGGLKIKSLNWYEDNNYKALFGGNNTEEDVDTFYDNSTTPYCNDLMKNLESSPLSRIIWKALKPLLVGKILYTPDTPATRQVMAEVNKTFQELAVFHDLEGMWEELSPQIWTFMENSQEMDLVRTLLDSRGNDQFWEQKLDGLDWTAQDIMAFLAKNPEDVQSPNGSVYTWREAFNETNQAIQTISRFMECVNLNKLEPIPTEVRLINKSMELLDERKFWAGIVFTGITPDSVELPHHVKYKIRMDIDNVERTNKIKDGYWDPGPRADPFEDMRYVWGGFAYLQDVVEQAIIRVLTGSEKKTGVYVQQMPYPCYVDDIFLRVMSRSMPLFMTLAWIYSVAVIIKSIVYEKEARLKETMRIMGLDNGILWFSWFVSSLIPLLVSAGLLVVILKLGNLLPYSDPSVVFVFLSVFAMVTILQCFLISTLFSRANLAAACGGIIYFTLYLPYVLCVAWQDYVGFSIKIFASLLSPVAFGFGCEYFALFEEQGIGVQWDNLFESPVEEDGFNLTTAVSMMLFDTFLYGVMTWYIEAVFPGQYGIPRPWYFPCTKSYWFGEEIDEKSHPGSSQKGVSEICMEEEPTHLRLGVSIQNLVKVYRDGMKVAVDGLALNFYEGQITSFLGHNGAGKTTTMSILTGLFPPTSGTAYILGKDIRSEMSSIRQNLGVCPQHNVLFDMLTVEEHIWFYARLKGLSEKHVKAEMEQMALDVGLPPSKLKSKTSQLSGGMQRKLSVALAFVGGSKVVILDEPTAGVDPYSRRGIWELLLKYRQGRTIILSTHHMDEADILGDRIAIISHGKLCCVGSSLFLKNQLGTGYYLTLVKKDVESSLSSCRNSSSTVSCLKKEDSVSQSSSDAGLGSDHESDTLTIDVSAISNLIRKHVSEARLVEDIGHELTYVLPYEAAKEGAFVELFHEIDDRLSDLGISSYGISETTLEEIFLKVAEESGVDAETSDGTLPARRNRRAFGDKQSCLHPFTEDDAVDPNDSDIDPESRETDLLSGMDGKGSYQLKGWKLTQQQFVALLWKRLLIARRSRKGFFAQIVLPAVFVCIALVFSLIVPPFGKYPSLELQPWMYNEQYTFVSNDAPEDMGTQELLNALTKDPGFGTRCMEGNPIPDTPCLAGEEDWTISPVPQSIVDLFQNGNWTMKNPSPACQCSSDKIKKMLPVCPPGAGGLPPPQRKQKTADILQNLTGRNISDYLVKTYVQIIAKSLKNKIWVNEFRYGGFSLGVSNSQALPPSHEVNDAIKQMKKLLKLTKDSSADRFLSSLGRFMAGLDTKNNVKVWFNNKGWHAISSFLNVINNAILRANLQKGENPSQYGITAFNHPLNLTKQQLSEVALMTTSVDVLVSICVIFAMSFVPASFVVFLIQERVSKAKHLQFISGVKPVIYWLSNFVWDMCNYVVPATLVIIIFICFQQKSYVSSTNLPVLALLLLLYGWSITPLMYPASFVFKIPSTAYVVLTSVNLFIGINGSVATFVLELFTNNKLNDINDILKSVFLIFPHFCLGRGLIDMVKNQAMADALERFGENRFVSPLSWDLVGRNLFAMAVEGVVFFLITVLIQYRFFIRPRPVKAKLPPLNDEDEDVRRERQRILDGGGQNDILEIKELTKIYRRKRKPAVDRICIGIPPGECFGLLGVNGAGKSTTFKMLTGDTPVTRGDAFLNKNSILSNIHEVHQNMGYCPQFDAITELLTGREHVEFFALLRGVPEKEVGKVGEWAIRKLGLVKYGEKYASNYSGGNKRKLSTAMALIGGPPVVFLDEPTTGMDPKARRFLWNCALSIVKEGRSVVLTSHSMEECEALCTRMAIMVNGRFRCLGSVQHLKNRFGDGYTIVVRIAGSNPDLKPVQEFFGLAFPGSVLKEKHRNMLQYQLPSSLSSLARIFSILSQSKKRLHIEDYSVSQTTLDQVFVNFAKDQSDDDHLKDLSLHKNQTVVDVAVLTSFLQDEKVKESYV

Regarding “EVRSKLEEWFAAFREFAEEFLARLKS (synthetic amphipathic alpha helix HDL mimetic peptide ATI-5261 susceptible to oxidation that stimulates ATP binding cassette protein ABCA1-dependent cholesterol efflux based on apolipoprotein AI (ApoA-I) alpha-helical motif) [26-mer prototype/parent HDL mimetic ABCA1 efflux peptide, oxidation susceptible, reference compound]”, in the series with J774 macrophages [1], the “molar potency for ABCA1 cholesterol efflux relative to native apoA-I” value is “nearly the same molar potency as native apoA-I”. Besides, the “cross-linking of the peptide after acrolein treatment” value in series [2] is “substantial cross-linking”. The α-helical content in series [3] (+Acrolein) is 48.3%; in series [3] (no acrolein), 72.7%. The “α-helical content, comparison in words” value in series [3] is recorded as “significantly lower helical content”. The effect on atherosclerosis entry with atherosclerosis was “reduce substantial atherosclerosis”. In the series on J774 macrophages [4], the “change of cholesterol efflux activity upon exposure to acrolein” value was “marked decrease in cholesterol efflux activity”. The cholesterol efflux activity entry with J774 macrophages [4] is “stimulated cholesterol efflux (4 h) efficiently”.
For “EVRSRLEEWFAAFREFAEEFLARLRS [K5,25→R, ATI-5261 with arginine in place of lysine at positions 5 and 25]”, the figures for the α-helical content in series [3] (+Acrolein) and in series [3] (no acrolein) were 72.6% and 56.8%, respectively. For the same molecule, the “α-helical content, comparison in words” value in series [3] was “lower α-helical content compared to the ATI-5261 control; also recorded: increase in α-helical content”. The “macrophage reverse cholesterol transport” value in series [5] is given as “greatly improved macrophage reverse cholesterol transport”. Besides, in the series on J774 macrophages [4] (acrolein-treated peptide vs untreated peptide), the “augmentation of cholesterol efflux activity by acrolein” value is on record as about 70%. Also, the “change of cholesterol efflux activity upon exposure to acrolein” value in the series with J774 macrophages [4] was “increased upon exposure to acrolein”. In addition, the cholesterol efflux activity entry in the series on J774 macrophages [4] is “stimulated cholesterol efflux (4 h) efficiently”; with J774 macrophages [4] (listed as K→R), “no effect on cholesterol efflux activity”.
Regarding EVRSKLEEWFAAFREFAEEFLARLKS [ATI-5261], in the series with ABCA1, the “reduction of cholesterol efflux activity after acrolein exposure, molar acrolein:peptide ratio 5:1” value was 50%; the “reduction of cholesterol efflux activity after acrolein exposure, molar acrolein:peptide ratio 10:1” value is 70%; the “reduction of cholesterol efflux activity after acrolein exposure, molar acrolein:peptide ratio 20:1” value turned out to be 93%.
